Assay results as given in US20200087405A1 (UNIVERSITY OF SASKATCHEWAN, published 2020).

What was measured:
[1] = biological target: T1, Fc-tagged ECD of ErbB2 (ErbB family member, R&D 1129-ER) (human, UniProt P04626 23-652); assay: single point Fab-phage ELISA on immobilized protein
T1 construct: extracellular domain; not shown: Fc tag of the bought protein

[2] = biological target: T2, Fc-tagged ECD of ErbB3 (R&D 348-RB) (human, UniProt P21860 20-643); assay: as above
T2 construct: extracellular domain; also called ErbB family member; not shown: Fc tag of the bought protein

[3] = biological target: T3, Fc-tagged ECD of ErbB4 (ErbB family member, R&D 1131-ER) (human, UniProt Q15303 26-651); assay: as above
T3 construct: extracellular domain; not shown: Fc tag of the bought protein
T3 sequence (looked up): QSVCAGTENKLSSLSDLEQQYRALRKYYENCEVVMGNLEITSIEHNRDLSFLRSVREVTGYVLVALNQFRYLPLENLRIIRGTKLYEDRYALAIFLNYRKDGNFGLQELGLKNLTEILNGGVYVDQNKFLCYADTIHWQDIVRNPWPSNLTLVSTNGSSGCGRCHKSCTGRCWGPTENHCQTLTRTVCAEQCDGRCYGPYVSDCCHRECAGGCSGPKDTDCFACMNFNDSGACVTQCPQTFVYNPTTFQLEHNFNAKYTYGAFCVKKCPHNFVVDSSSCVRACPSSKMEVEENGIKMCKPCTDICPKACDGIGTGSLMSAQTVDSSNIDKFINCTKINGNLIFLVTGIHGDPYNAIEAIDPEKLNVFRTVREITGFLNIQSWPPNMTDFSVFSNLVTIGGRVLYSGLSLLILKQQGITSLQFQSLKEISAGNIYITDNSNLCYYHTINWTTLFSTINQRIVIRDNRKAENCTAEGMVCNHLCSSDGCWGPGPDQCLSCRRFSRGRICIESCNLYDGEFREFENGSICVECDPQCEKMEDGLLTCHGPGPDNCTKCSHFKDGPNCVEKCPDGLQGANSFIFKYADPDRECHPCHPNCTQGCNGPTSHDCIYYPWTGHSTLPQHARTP

[4] = biological target: T4, cell-surface EGFR (endogenous on A431, MDA-MB-231 and other cancer cell lines); pBABE-EGFR transfected 293T … (UniProt P00533 25-1210, limits assumed); assay: flow cytometry on A431 cells, 800CW-labelled fragment
T4 construct: whole, on cells; Untagged EGFR on cells; also called endogenous cell-surface EGFR; EGFR1

[5] = biological target: T5, Fc-tagged extracellular domain (ECD) of the recombinant human EGFR (rhEGFR) (human, UniProt P00533 25-645); assay: apparent affinity by multi-point competitive ELISA using purified EGFR, Fab-phage; Fab-phage, first account of the DL06 selection
T5 construct: extracellular domain; also called rhEGFR-ECD; rhEGFR-ECD-Fc; not shown: Fc tag of the bought protein (R&D 344-ER)

- binding result [1]: no binding
- binding result [2]: binds
- binding result [3]: no binding
- Kd [4]: > 1 µM
- Kd [5]: > 0.1 µM
B1: Fab DL06 (Fab)
heavy: EVQLVESGGGLVQPGGSLRLSCAASGFNISSSSIHWVRQAPGKGLEWVAYISSYYSSTYYADSVKGRFTISADTSKNTAYLQMNSLRAEDTAVYYCARTYCPPLMLYNPTTYQMDVNPEGKYSFGATCGWAMDYWGQGTLVTVSSASTKGPSVFPLAPSSKSTSGGTAALGCLVKDYFPEPVTVSWNSGALTSGVHTFPAVLQSSGLYSLSSVVTVPSSSLGTQTYICNVNHKPSNTKVDKKVEPKSCDKTHT
light: DIQMTQSPSSLSASVGDRVTITCRASQSVSSAVAWYQQKPGKAPKLLIYSASSLYSGVPSRFSGSRSGTDFTLTISSLQPEDFATYYCQQWSYYPITFGQGTKVEIKRTVAAPSVFIFPPSDSQLKSGTASVVCLLNNFYPREAKVQWKVDNALQSGNSQESVTEQDSKDSTYSLSSTLTLSKADYEKHKVYACEVTHQGLSSPVTKSFNRGECGGSDYKDDDDK
notes: Fab with the EGFR dimerization loop grafted in CDR-H3; the light chain entry ends in a FLAG tag; also called DL06 Fab; parent clone DL06
